# Ends that are not written are not given here.
# How the values were obtained:
# [1] = Fetuin A / casein phosphopeptide mixed nanoclusters, dynamic light scattering; type: physicochemical; details: 66.4 mg ml^−1, Mg-free Buffer A, urea/urease method
# Description: Fetuin A was purchased from Sigma Aldrich as product no. F3004. […] The inventors determined the precipitation problem was much reduced at lower fetuin A concentrations so an approach was adopted in which mixed nanoclusters were prepared with casein phosphopeptides and a variable concentration of the fetuin A to recover the size of the fetuin nanoclusters by an extrapolation procedure from lower concentrations. The casein phosphopeptide mixture was supplied by Arla Ltd, Denmark as product Lacprodan 2090 (Na salt). […] The intensity weighted normalised distribution curves calculated by Laplace transformation of the correlation functions of the 6 samples, offset vertically for clarity (FIG. 18a) indicate a nanocluster peak of about 6 nm in accordance with previous work, but as the fetuin A concentration increased, a second peak became increasingly important at larger size. […] Although difficult to estimate exactly, on the basis of scattering by homogeneous spherical particles, the weight fraction of aggregated material in these experiments was calculated to be less than 1% in all cases. […]
# [2] = SAXS of free OPN and OPN 1-149 (Guinier, worm-like chain model); type: physicochemical
# Description: In a SAXS experiment, wherein measurements were made on station 2.1 at the CCLRC Daresbury Laboratory, the normalised scattered intensity I(q) was measured. For a dispersion of isotropic, monodisperse particles, I(q) is related to the inter-particle structure factor, S(q) and the particle scattering factor P(q) by
# where N is the number of particles of mean excess scattering length density over the solvent Δ ρp, volume Vp and mass M. The scattering wave vector is q=4π sin θ/λo, where θ is half the scattering angle and λo is the wavelength of the X-rays. In a dilute solution where S(q)=1 and a fraction α′ of the peptide chains have formed a polydisperse distribution of nanoclusters, equation (22) becomes
# The molar volumes of the unphosphorylated residues were taken from Jacrot and Zaccai (Jacrot, B. & Zaccai, G. (1981). Determination of Molecular-Weight by Neutron-Scattering. Biopolymers 20, 2413-2426). The molar volume of ortho-L-phosphoserine was calculated from the unit cell volume of the amino acid, as determined by Sundaralingam (Sundaralingam, M. & Putkey, E. F. (1970). Molecular structures of amino acids and peptides. II. A redetermination of the crystal structure of L-O-serine phosphate. A very short phosphate-carboxyl hydrogen bond. Acta Crystallographica B26, 790-800) and 11 Å^3 subtracted to give the residue volume of 168.7 Å^3. The difference in residue volumes of serine and phosphoserine was then used to calculate a residue volume for phosphothreonine of 191.7 Å^3. The X-ray forward scattering amplitudes of the residues were calculated from the elemental compositions using atomic scattering factors. For OPN 16P 1-149 and OPN 28P 1-262, the scattering length densities in units of […] were calculated to be 12.56 and 12.48, respectively. For the nanoclusters prepared with OPN 16P 1-149 it was assumed that the phosphate moieties of the 10 phosphorylated residues found in the three PCs, were assigned to the core, giving ρshell=12.40×10^10 cm^−2. For the core, a hydrated CaP with the composition given by equation (2) gave ρcore=19.1×10^10 cm^−2. Radii of gyration of the whole protein and N-terminal polypeptide were independent of concentration in the range 5-15 mg ml^−1. For OPN the average of three determinations by the Guinier method was 5.50±0.17 nm and the corresponding value for OPN 1-149 was 2.17±0.24 nm. For OPN with 262 residues, equation (28) predicts a radius of gyration of 5.38 nm and for the N-terminal plasmin peptide of 149 residues, the predicted value is 3.84 nm.
# Random-coil behavior and the dimensions of chemically unfolded proteins. Proceedings of the National Academy of Sciences of the United States of America 101, 12491-12496). […]
# [3] = Ca2+ binding isotherm (Ca ion selective electrode) fitted with semi-empirical binding model; details: from isotherm fit
# Source text: To model the chemical species in the OPN 1-149 nanocluster solution requires the calculation of Ca ion binding to the free peptide at any pH in the range 5.0-8.0. A semi-empirical model was used to describe the binding isotherms obtained previously for the β-casein 1-25 phosphopeptide in this pH range and the same model was adapted to fit the binding isotherm of OPN 1-149 measured at pH 7.0. The rescaled model was then used to predict binding at any other value of the pH. Binding of Ca ions to the β-casein 1-25 peptide is predominantly to 4 phosphorylated residues and, to a lesser extent, to 7 Glu residues and the C-terminus.
# Fitting of the experimental isotherms was done to an equation of the form
# where the summation is over all binding sites with Ca ion association constants Ka,i. The function Ni(pH) describes the number of sites of type i as a function of pH and φi is the degree of phosphorylation. It was assumed, that all the phosphorylated sites had the average degree of phosphorylation φ. The number of dianionic phosphoseryl sites at a given pH is given by
# The binding behaviour of β-casein has shown that one Ca ion is bound much more strongly than the rest, so the model for binding to the phosphate dianionic groups allowed for two pKs and two Ca ion association constants. The phosphorylated sites have a reduced affinity for Ca ions when they become protonated and were treated as having the same low affinity as the carboxyl groups. […]
# The Ca^2+ binding isotherm of peptides recovered from fraction F3a was determined by measuring the concentration of free Ca ions with a Ca ion selective electrode after successive small additions of a stock solution of 100 mM Ca(NO3)2 to a solution containing 25 mg ml^−1 of F3a, buffered to pH 7.0 with 20 mM P, and 50 mM KNO3. […] The calculated OPN 1-149 isotherm was obtained by a separate fitting of the single isotherm employing a model with two pKs and association constants but keeping as many as possible of the constants from the casein model.
substance,measurement,setting,value
"Fetuin A: purchased from Sigma Aldrich, product no. F3004, purity about 80-90%",nanocluster preparation with fetuin A alone,[1],a fraction of the product precipitated
"OPN: full length native bovine milk osteopontin, gel filtration fraction F2",Kuhn length from the worm-like chain model,[2]; fit of SAXS,1.74±0.14 nm
same,radius of gyration by the Guinier method,"[2]; free peptide, 5-15 mg ml^−1, average of three determinations",5.50±0.17 nm
same,Kuhn segment length b from equation (24),[2]; from radius of gyration,1.9 nm
"β-casein 1-25: 25 residue N-terminal bovine β-casein tryptic phosphopeptide (RELEELNVPGEIVESLSSSEESITR; also: phosphopeptide (4P), sites not given here; UniProt P02666 16-40, looked up, fragment)",effective pK of the isolated Pse residue,[3],6.0
same,pK of the cluster of three Pse residues,[3],7.2

# Reference: patent US20110117206A1, “PHOSPHOPEPTIDES AND USE OF THE SAME” (PLANT BIOSCIENCE LIMITED, priority 2008, published 2011)
